Target: Myc-mGlu5a-Rluc8 (UniProt P31424-2 21-1171)
Assay: FRET or BRET

BRET ratio in the spine before TAT-Homer1a (% of mean BRET in the shaft): 364%
B1: YFP-Homer3 (natural protein, UniProt Q9Z2X5 1-358, looked up)
chain: MSTAREQPIFSTRAHVFQIDPATKRNWIPAGKHALTVSYFYDATRNVYRIISIGGAKAIINSTVTPNMTFTKTSQKFGQWADSRANTVYGLGFGSEQQLTQFAEKFQEVKEAARLAREKSQDGGELTSTALAMASHQVPPSPLVSTNGPEEKLFRSQSADAPGPTERERLKKMLSEGSVGEVQWEAEFFALQDSNQRLAGALREANAAATQWRQQLEVQRAEAEHLRQRVAELEAQVAAEPVRAGEKEATSQSVEQLEARVQTKDQEIQTLKNQSTGPREAPDTAEREETQQQVQDLETRNAELEQQLRAMESNLEEARAERERARAEVGRAAQLLDVRLFELSELREGLARLAEAAP
